{
  "source": "patent US20110086015",
  "key": {"[1]": {"system": "OZ125 CF877R zinc finger array (synthetic)", "experiment": "one_hybrid", "conditions": "bacterial two-hybrid lacZ; SD 0.85"}, "[2]": {"system": "OZ121 CF877R zinc finger array (synthetic)", "experiment": "one_hybrid", "conditions": "bacterial two-hybrid lacZ; SD 0.19"}, "[3]": {"system": "OZ135 CF877R zinc finger array (synthetic)", "experiment": "one_hybrid", "conditions": "bacterial two-hybrid lacZ; SD 0.07"}, "[4]": {"system": "OZ131 CF877R zinc finger array (synthetic)", "experiment": "one_hybrid", "conditions": "bacterial two-hybrid lacZ; SD 0.12"}, "[5]": {"system": "OZ130 CF877R zinc finger array (synthetic)", "experiment": "one_hybrid", "conditions": "bacterial two-hybrid lacZ; SD 0.22"}, "[6]": {"system": "OZ127 CF877R zinc finger array (synthetic)", "experiment": "one_hybrid", "conditions": "bacterial two-hybrid lacZ; SD 0.02"}, "[7]": {"system": "OZ132 CF877R zinc finger array (synthetic)", "experiment": "one_hybrid", "conditions": "bacterial two-hybrid lacZ; SD 0.05"}, "[8]": {"system": "OZ142 CF877R zinc finger array (synthetic)", "experiment": "one_hybrid", "conditions": "bacterial two-hybrid lacZ; SD 0.16"}, "[9]": {"system": "OZ123 CF877R zinc finger array (synthetic)", "experiment": "one_hybrid", "conditions": "bacterial two-hybrid lacZ; SD 0.63"}, "[10]": {"system": "OZ136 CF877R zinc finger array (synthetic)", "experiment": "one_hybrid", "conditions": "bacterial two-hybrid lacZ; SD 0.06"}, "[11]": {"system": "OZ124 CF877R zinc finger array (synthetic)", "experiment": "one_hybrid", "conditions": "bacterial two-hybrid lacZ; SD 0.20"}, "[12]": {"system": "OZ138 CF877R zinc finger array (synthetic)", "experiment": "one_hybrid", "conditions": "bacterial two-hybrid lacZ; SD 0.41"}, "[13]": {"system": "OZ139 CF877R zinc finger array (synthetic)", "experiment": "one_hybrid", "conditions": "bacterial two-hybrid lacZ; SD 0.03"}, "[14]": {"system": "OZ126 CF877R zinc finger array (synthetic)", "experiment": "one_hybrid", "conditions": "bacterial two-hybrid lacZ; SD 0.28"}, "[15]": {"system": "OZ128 CF877R zinc finger array (synthetic)", "experiment": "one_hybrid", "conditions": "bacterial two-hybrid lacZ; SD 0.07"}, "[16]": {"system": "OZ140 CF877R zinc finger array (synthetic)", "experiment": "one_hybrid", "conditions": "bacterial two-hybrid lacZ; SD 0.48"}, "[17]": {"system": "OZ122 CF877R zinc finger array (synthetic)", "experiment": "one_hybrid", "conditions": "bacterial two-hybrid lacZ; SD 0.59"}, "[18]": {"system": "OZ133 CF877R zinc finger array (synthetic)", "experiment": "one_hybrid", "conditions": "bacterial two-hybrid lacZ; SD 0.05"}, "[19]": {"system": "OZ120 CF877R zinc finger array (synthetic)", "experiment": "one_hybrid", "conditions": "bacterial two-hybrid lacZ; SD 0.01"}, "[20]": {"system": "OZ119 CF877R zinc finger array (synthetic)", "experiment": "one_hybrid", "conditions": "bacterial two-hybrid lacZ; SD 0.35; site triplets appear printed in F1-F2-F3 order, so 5'-3' triplet order may be reversed"}, "[21]": {"system": "OZ141 CF877R zinc finger array (synthetic)", "experiment": "one_hybrid", "conditions": "bacterial two-hybrid lacZ; SD 0.08"}, "[22]": {"system": "OZ134 CF877R zinc finger array (synthetic)", "experiment": "one_hybrid", "conditions": "bacterial two-hybrid lacZ; SD 0.19"}, "[23]": {"system": "OZ129 CF877R zinc finger array (synthetic)", "experiment": "one_hybrid", "conditions": "bacterial two-hybrid lacZ; SD 0.07"}, "[24]": {"system": "OZ137 CF877R zinc finger array (synthetic)", "experiment": "one_hybrid", "conditions": "bacterial two-hybrid lacZ; SD 0.04"}, "[25]": {"system": "OZ111 CF877L zinc finger array (synthetic)", "experiment": "one_hybrid", "conditions": "bacterial two-hybrid lacZ; SD 1.90"}, "[26]": {"system": "OZ115 CF877L zinc finger array (synthetic)", "experiment": "one_hybrid", "conditions": "bacterial two-hybrid lacZ; SD 0.12"}, "[27]": {"system": "OZ113 CF877L zinc finger array (synthetic)", "experiment": "one_hybrid", "conditions": "bacterial two-hybrid lacZ; SD 0.20"}, "[28]": {"system": "OZ112 CF877L zinc finger array (synthetic)", "experiment": "one_hybrid", "conditions": "bacterial two-hybrid lacZ; SD 0.55"}, "[29]": {"system": "OZ116 CF877L zinc finger array (synthetic)", "experiment": "one_hybrid", "conditions": "bacterial two-hybrid lacZ; SD 0.38"}, "[30]": {"system": "OZ110 CF877L zinc finger array (synthetic)", "experiment": "one_hybrid", "conditions": "bacterial two-hybrid lacZ; SD 0.15"}, "[31]": {"system": "OZ107 CF877L zinc finger array (synthetic)", "experiment": "one_hybrid", "conditions": "bacterial two-hybrid lacZ; SD 0.58; site triplets appear printed in F1-F2-F3 order, so 5'-3' triplet order may be reversed"}, "[32]": {"system": "OZ108 CF877L zinc finger array (synthetic)", "experiment": "one_hybrid", "conditions": "bacterial two-hybrid lacZ; SD 0.51"}, "[33]": {"system": "OZ117 CF877L zinc finger array (synthetic)", "experiment": "one_hybrid", "conditions": "bacterial two-hybrid lacZ; SD 0.33"}, "[34]": {"system": "OZ114 CF877L zinc finger array (synthetic)", "experiment": "one_hybrid", "conditions": "bacterial two-hybrid lacZ; SD 0.18"}, "[35]": {"system": "OZ109 CF877L zinc finger array (synthetic)", "experiment": "one_hybrid", "conditions": "bacterial two-hybrid lacZ; SD 0.20"}, "[36]": {"system": "OZ118 CF877L zinc finger array (synthetic)", "experiment": "one_hybrid", "conditions": "bacterial two-hybrid lacZ; SD 0.08"}, "[37]": {"system": "T1, CF877 left ZFN (synthetic)", "T1 sequence": "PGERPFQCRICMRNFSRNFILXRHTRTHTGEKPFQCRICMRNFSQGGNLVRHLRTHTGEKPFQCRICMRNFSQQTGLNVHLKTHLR", "experiment": "cell_activity", "conditions": "as pair with right ZFN, K562 nucleofection; up to ~29% with adenovirus in CFBE41o-; exact clone of pair not stated"}},
  "data": [
    {"sequence": "GAGTGGTTA (double strand) [CF877R half-site]", "values": [
      {"measurement": "binding signal (fold activation)", "setting": "[1]", "value": 4},
      {"measurement": "binding signal (fold activation)", "setting": "[2]", "value": 2.91},
      {"measurement": "binding signal (fold activation)", "setting": "[3]", "value": 2.25},
      {"measurement": "binding signal (fold activation)", "setting": "[4]", "value": 2.08},
      {"measurement": "binding signal (fold activation)", "setting": "[5]", "value": 2.47},
      {"measurement": "binding signal (fold activation)", "setting": "[6]", "value": 1.6},
      {"measurement": "binding signal (fold activation)", "setting": "[7]", "value": 1.28},
      {"measurement": "binding signal (fold activation)", "setting": "[8]", "value": 2.73},
      {"measurement": "binding signal (fold activation)", "setting": "[9]", "value": 5.03},
      {"measurement": "binding signal (fold activation)", "setting": "[10]", "value": 2.16},
      {"measurement": "binding signal (fold activation)", "setting": "[11]", "value": 4.41},
      {"measurement": "binding signal (fold activation)", "setting": "[12]", "value": 2.52},
      {"measurement": "binding signal (fold activation)", "setting": "[13]", "value": 2.74},
      {"measurement": "binding signal (fold activation)", "setting": "[14]", "value": 2.57},
      {"measurement": "binding signal (fold activation)", "setting": "[15]", "value": 2.12},
      {"measurement": "binding signal (fold activation)", "setting": "[16]", "value": 2.99},
      {"measurement": "binding signal (fold activation)", "setting": "[17]", "value": 4.72},
      {"measurement": "binding signal (fold activation)", "setting": "[18]", "value": 3.24},
      {"measurement": "binding signal (fold activation)", "setting": "[19]", "value": 2.53},
      {"measurement": "binding signal (fold activation)", "setting": "[20]", "value": 2.78},
      {"measurement": "binding signal (fold activation)", "setting": "[21]", "value": 2.87},
      {"measurement": "binding signal (fold activation)", "setting": "[22]", "value": 3.71},
      {"measurement": "binding signal (fold activation)", "setting": "[23]", "value": 2.55},
      {"measurement": "binding signal (fold activation)", "setting": "[24]", "value": 2.26}
    ]},
    {"sequence": "GTGGAATTA (double strand) [CF877L half-site]", "values": [
      {"measurement": "binding signal (fold activation)", "setting": "[25]", "value": 2.2},
      {"measurement": "binding signal (fold activation)", "setting": "[26]", "value": 2.71},
      {"measurement": "binding signal (fold activation)", "setting": "[27]", "value": 1.61},
      {"measurement": "binding signal (fold activation)", "setting": "[28]", "value": 2.52},
      {"measurement": "binding signal (fold activation)", "setting": "[29]", "value": 2.53},
      {"measurement": "binding signal (fold activation)", "setting": "[30]", "value": 1.61},
      {"measurement": "binding signal (fold activation)", "setting": "[31]", "value": 1.92},
      {"measurement": "binding signal (fold activation)", "setting": "[32]", "value": 2.31},
      {"measurement": "binding signal (fold activation)", "setting": "[33]", "value": 3.87},
      {"measurement": "binding signal (fold activation)", "setting": "[34]", "value": 2.95},
      {"measurement": "binding signal (fold activation)", "setting": "[35]", "value": 2.83},
      {"measurement": "binding signal (fold activation)", "setting": "[36]", "value": 3.55},
      {"measurement": "activity", "setting": "[37]", "value": 1.2, "unit": "% indels"}
    ]}
  ]
}
